Experimental data taken from PMC12130793, “A conserved aspartate residue in [4Fe-4S]-containing HypD is required for [NiFe]-cofactor biosynthesis and for efficient interaction of the HypCD scaffold complex with HypE” (Metallomics: Integrated Biometal Science, 2025).
Residue numbers refer to the chain shown, from its start. Names and notes keep the numbering of the source.

B1: HypD (native, untagged) (natural protein, E. coli, UniProt P24192 1-373, looked up)
chain: MRFVDEYRAPEQVMQLIEHLRERASHLSYTAERPLRIMEVCGGHTHAIFKFGLDQLLPENVEFIHGPGCPVCVLPMGRIDTCVEIASHPEVIFCTFGDAMRVPGKQGSLLQAKARGADVRIVYSPMDALKLAQENPTRKVVFFGLGFETTMPTTAITLQQAKARDVQNFYFFCQHITLIPTLRSLLEQPDNGIDAFLAPGHVSMVIGTDAYNFIASDFHRPLVVAGFEPLDLLQGVVMLVQQKIAAHSKVENQYRRVVPDAGNLLAQQAIADVFCVNGDSEWRGLGVIESSGVHLTPDYQRFDAEAHFRPAPQQVCDDPRARCGEVLTGKCKPHQCPLFGNTCNPQTAFGALMVSSEGACAAWYQYRQQESEA
notes: Carries a [4Fe-4S] cluster; also called native HypD; WT HypD; source: E. coli BL21(DE3), co-expressed with HypC-Strep (phypDC) or with HypE, HypF and HybG-Strep (phypDEF-hybG); co-purified anaerobically
B2: HypC bearing a C-terminal StrepII-tag (natural protein, E. coli, UniProt P0AAM3 1-90, looked up)
chain: MCIGVPGQIRTIDGNQAKVDVCGIQRDVDLTLVGSCDENGQPRVGQWVLVHVGFAMSVINEAEARDTLDALQNMFDVEPDVGALLYGEEK
notes: HypC, hydrogenase maturation factor of E. coli; native HypC; also called HypC-Strep; Strep-tagged HypC; source: E. coli BL21(DE3) transformed with phypDC or phypD_(D98A)hypC, purified anaerobically (Strep tag); not shown: StrepII, C-terminal, kept
B3: HypD_(D98A) (untagged) (natural protein, E. coli, UniProt P24192 1-373, looked up)
chain: B1 chain with D98A
notes: HypD of E. coli with the D98A exchange, without a tag; source: co-purified anaerobically

Key:
[1] = molecular target: B2; experiment: native MS; anaerobically purified HypC-Strep/HypD complexes buffer-exchanged into 500 mM ammonium acetate, pH 6.8, about 10 uM; nano-ESI Q-TOF; MS/MS with collision-induced dissociation (90 V) of the +12 charge state of the heterodimer; details: both partners purified
HypD (native, untagged) = molecular target: B1; experiment: pull-down; co-purification from BL21(DE3) cells by the StrepII tag (on HypD, HypC or HybG) under anoxic conditions; 5 ug of isolated protein on SDS-PAGE, immunoblot with anti-HypD or anti-HypE antiserum (1:1000); details: partners not purified
HypD_(D98A) (untagged) = molecular target: B3; experiment: as above; details: partners not purified

| stoichiometry N [1] | binding result (HypD (native, untagged)) | binding result (HypD_(D98A) (untagged)) | Binder |
| --- | --- | --- | --- |
| 1 ratio HypC:HypD | – | – | B1 |
| – | binds | binds | B2 |
| 1 ratio HypC:HypD | – | – | B3 |
